# Measured values as given in US20230192897A1 (NUMAB THERAPEUTICS, published 2023).
# T1: mouse CD137-Fc chimeric protein (mouse, UniProt P20334 24-187, limits assumed)
# T1 sequence (looked up): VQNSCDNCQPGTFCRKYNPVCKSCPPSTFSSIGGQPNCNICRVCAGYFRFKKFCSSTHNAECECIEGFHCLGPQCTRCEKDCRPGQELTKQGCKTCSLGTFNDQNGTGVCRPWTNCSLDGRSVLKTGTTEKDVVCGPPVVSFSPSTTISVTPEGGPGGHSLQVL
# Legend:
# [1] = target: T2, CD137 on Jurkat NFkB reporter cells (human, UniProt Q07011 24-255); assay: cell-based or functional assay
# [2] = target: T2, CD137 on Jurkat NFkB reporter cells; assay: cell-based or functional assay; remark: listed apart in the source
# [3] = target: T1, mouse CD137-Fc chimeric protein; assay: SPR
# Outline: (§1)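 Kinetics were fitted with a one-to-one Langmuir model to give apparent ka, kd and KD. Binders at 0.12-90 nM (three-fold series) flowed 3 min, with 10 min dissociation and 3 M MgCl₂ regeneration, on a Biacore T200.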
# Fc tagged human CD137 = target: T3, Fc tagged human CD137 (human, UniProt Q07011 24-186); assay: SPR
# T3 construct: also called CD137-Fc chimeric protein
# Outline: as §1
# Fc tagged human PDL1 = target: T4, Fc tagged human PDL1 (human, UniProt Q9NZQ7 19-239); assay: SPR
# T4 construct: Bought (Sino Biological, cat. 10084-H02H); captured on the SPR chip; also called PDL1-Fc chimeric protein
# Outline: as §1
# [4] = target: cynomolgus CD137-Fc chimeric protein (cynomolgus monkey, UniProt A9YYE7 24-186); assay: SPR
# Outline: as §1
# [5] = target: T2, CD137 on Jurkat NFkB reporter cells; assay: cell-based or functional assay; remark: listed apart in the source
# [6] = target: T2, CD137 on Jurkat NFkB reporter cells; assay: cell-based or functional assay; remark: listed apart in the source
Binder,"EC50, NFkB reporter, HCC827 with IFNg [1]","Top of curve fit, NFkB reporter, HCC827 with IFNg [1]","EC50, NFkB reporter, CHO-PDL1 [2]","Top of curve fit, NFkB reporter, CHO-PDL1 [2]",kon [3],Kd (Fc tagged human CD137),koff (Fc tagged human CD137),kon (Fc tagged human CD137),koff (Fc tagged human PDL1),kon (Fc tagged human PDL1),koff [4],"IC50 (ng/ml), NFkB reporter, CHO-PD-L1 [5]","IC50 (ng/ml), NFkB reporter, HCC827 + IFNg [5]","IC50 (ng/ml), NFkB reporter, HCC827 - IFNg [5]","max. activation (%), NFkB reporter, CHO-PD-L1 [5]","max. activation (%), NFkB reporter, HCC827 + IFNg [5]","max. activation (%), NFkB reporter, HCC827 - IFNg [5]","rel. IC50 (urelumab/test), NFkB reporter, CHO-PD-L1 [5]","rel. IC50 (urelumab/test), NFkB reporter, HCC827 + IFNg [5]","rel. IC50 (urelumab/test), NFkB reporter, HCC827 - IFNg [5]",other results
"PRO1123 (bispecific antibody, scDb; also called 38-02-A04 sc05 IF scDb-i/33-03-G02 sc01 scDb-o) DIQMTQSPSSLSASVGDRVTITCQASQSINDYLAWYQQKPGKAPKLLIYKASTLASGVPSRFSGSGSGTDFTLTISSLQPEDFATYYCQQGYIITDIDNVFGTGTKVTVLGGGGGSQVQLQESGPGLVKPSETLSLTCKVSGFSFSNSYWICWVRQPPGKGLEWIGCTFVGSSDSTYYANWAKGRVTISVDSSKNQVSLKLSSVTAADTAVYFCARHPSDAVYGYANNLWGQGTLVTVSSGGGGSGGGGSGGGGSGGGGSIQMTQSPSSLSASVGDRVTITCQASQSINNVLAWYQQKPGKPPKLLIYRASTLASGVPSRFSGSGSGTDFTLTISSLQPEDFATYYCQSSYGNYGDFGTGTKVTVLGGGGGSQVQLQESGPGLVKPSETLSLTCKVSGFSFSSGYDMCWIRQPPGKGLEWIGCVVAGSVDITYYASWAKGRVTISVDSSKNQFSLKLSSVTAADTAVYYCARKDAYSDAFNLWGQGTLVTVSS",11.9 ng/mL,154,5.75 ng/mL,219,65000 M⁻¹ s⁻¹,0.58 nM,0.00027 s⁻¹,310000 M⁻¹ s⁻¹,0.00017 s⁻¹,2.3e+06 M⁻¹ s⁻¹,0.00033 s⁻¹,5.75 ng/mL,11.4 ng/mL,16.1 ng/mL,219%,154%,123%,18.1 fold,12.2 fold,6.82 fold,"Kd [3]: 410 nM; koff [3]: 0.027 s⁻¹; Kd [4]: 1.3 nM; kon [4]: 260000 M⁻¹ s⁻¹; EC50, NFkB reporter, HCC827 without IFNg [6]: 16.1 ng/mL; Top of curve fit, NFkB reporter, HCC827 without IFNg [6]: 123"
"PRO1124 (bispecific antibody, scDb; also called 38-02-A04 sc06 Full scDb-i/33-03-G02 sc01 scDb-o) DIQMTQSPSSLSASVGDRVTITCQASQSINDYLAWYQQKPGKAPKLLIYKASTLASGVPSRFSGSGSGTDFTLTISSLQPEDFATYYCQQGYIITDIDNVFGTGTKVTVLGGGGGSQVQLQESGPGLVKPSETLSLTCKASGFSFSNSYWICWVRQPPGKGLEWIGCTFVGSSDSTYYANWAKGRVTISKDSSKNQVSLKLSSVTAADTAVYFCARHPSDAVYGYANNLWGQGTLVTVSSGGGGSGGGGSGGGGSGGGGSLQMTQSPSSLSASVGDRVTITCQASQSINNVLAWYQQKPGKPPKLLIYRASTLASGVPSRFSGSGSGTDFTLTISSLQPEDFATYYCQSSYGNYGDFGTGTKVTVLGGGGGSQVQLQESGPGLVKPSETLSLTCKVSGFSFSSGYDMCWIRQPPGKGLEWIGCVVAGSVDITYYASWAKGRVTISVDSSKNQFSLKLSSVTAADTAVYYCARKDAYSDAFNLWGQGTLVTVSS",4.83 ng/mL,188,3.68 ng/mL,229,200000 M⁻¹ s⁻¹,≤ 0.015 nM,< 1e-05 s⁻¹,680000 M⁻¹ s⁻¹,0.0002 s⁻¹,3.1e+06 M⁻¹ s⁻¹,0.00033 s⁻¹,3.68 ng/mL,4.83 ng/mL,5.62 ng/mL,229%,188%,113%,23.5 fold,22.4 fold,19.9 fold,"fold improvement of affinity against PRO885 (Fc tagged human CD137): > 200 fold; EC50, NFkB reporter, HCC827 without IFNg [6]: 5.62 ng/mL; Top of curve fit, NFkB reporter, HCC827 without IFNg [6]: 113"
